Assay results reported in US20260365731 (published 2026).
Several values for one entry are separate records, joined by “and”; a condition that tells them apart may be missing. Equal values may be shown once.

T1: human VEGFA (human, UniProt P15692)
T1 chain: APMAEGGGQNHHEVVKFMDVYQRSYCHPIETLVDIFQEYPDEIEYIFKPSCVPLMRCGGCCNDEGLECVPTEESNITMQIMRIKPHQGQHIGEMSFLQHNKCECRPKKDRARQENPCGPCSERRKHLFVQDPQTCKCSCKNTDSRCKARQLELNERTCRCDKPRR

B1: JS001 (TAB001, toripalimab) (antibody, V domains shown)
VH: QGQLVQSGAEVKKPGASVKVSCKASGYTFTDYEMHWVRQAPIHGLEWIGVIESETGGTAYNQKFKGRVTITADKSTSTAYMELSSLRSEDTAVYYCAREGITTVATTYYWYFDVWGQGTTVTVSS
VL: DVVMTQSPLSLPVTLGQPASISCRSSQSIVHSNGNTYLEWYLQKPGQSPQLLIYKVSNRFSGVPDRFSGSGSGTDFTLKISRVEAEDVGVYYCFQGSHVPLTFGQGTKLEIK
B2: Antibody 28 PD-1 arm (antibody, V domains shown)
VH: B1 VH
VL: B1 VL
B3: Antibody 24 PD-1 arm (antibody, V domains shown)
VH: B1 VH
VL: B1 VL
B4: Antibody 23 PD-1 arm (antibody, V domains shown)
VH: B1 VH
VL: B1 VL
B5: Antibody 27 PD-1 arm (antibody, V domains shown)
VH: B1 VH
VL: B1 VL
B6: DotAb4 (designed binder)
chain: EVQLVESGGGLVQPGGSLRLSCAISGFSLAATDIDWVRQAPGKGLEWVARIFSPSDFTDYADSVKGRFTISADTSKNTVYLQMNSLRAEDTAVYYCGRPDTYAYNIFLDTPTYNALHYRGQGTLVTVSS

Target: T1, human VEGFA
Experiment: SPR

Row | binding result | Binder
1 | no binding | B1

target: T2, human PD-1 (human, UniProt Q15116); experiment: competition ELISA, PD-L1 blocking

Row | IC50 | Binder
2 | 573 nM | B2
3 | 243 nM | B3
4 | 293 nM | B4
5 | 255 nM and 135 nM | B1
6 | 297 nM | B5

Target: T1, human VEGFA
Experiment: BLI

Row | Kd | Binder
7 | < 0.0266 nM | B6

target: T2, human PD-1; experiment: BLI

Row | Kd | Binder
8 | 1.67 nM | B2
9 | 1.21 nM | B3
10 | 1.73 nM | B4
11 | 0.584 nM | B1
12 | 0.864 nM | B5

target: T2, human PD-1; experiment: ELISA

Row | EC50 | Binder
13 | 59.5 nM | B2
14 | 14.6 nM | B3
15 | 6.93 nM | B4
16 | 23.8 nM | B5
